Measurements from patent US20250027068.
Where a chain is given by its changes, count along the chain named.

Molecular target: pooled human IgG (human IgG1, 2, 3 and 4)

B1: PRT-437 (protein)
chain: MSQTEDSESLQRLRDIEDFQAEKKKQNVVYTKWLDGVDVKDHDFRKIVDGNEAYYATPLLNGRGFYDINKDFNRDSDKCAAAVAANMFHYWLDRNRDNVDRFLRQNPEKHGIIELPDGQLKLSDFLNTYESDDGYRDKSKLFDFISNNFNGPVWTDKLLDNYINGYAYNYKYGRTIEDPTKNTSKINFFKEVFNEKILTNNHSIRNQNEFSVLLSEALYTGKAIGLSYGPAGLRHSLGHIISVWGADLDADGNVVAIYVTDSDDKKLTIGDERVGLKRYKISTDDEGRLRLTAYEETHNTGGQIRGLWTLDTGKQAWADYFDKTEQTGTDQAEQ
Work on B1 yielded an Enzyme Activity Endpoint Assay (purified): Fab′2 of 445 ng/µL, an Enzyme Activity Endpoint Assay (purified): Fc of 306 ng/µL and an Enzyme Activity Endpoint Assay (purified): IgG of 0 ng/µL. For the same protein, the Enzyme Activity Endpoint Assay (purified): scIgG was 263 ng/µL, the Enzyme Activity Endpoint Assay: Fab′2 was 445 ng/µL and the Enzyme Activity Endpoint Assay: Fc was 306 ng/µL. For the same protein, the Enzyme Activity Endpoint Assay: IgG was 0 ng/µL and the Enzyme Activity Endpoint Assay: scIgG was 263 ng/µL.

B2: PRT-381 (protein)
chain: MVTSVWTKGVTPPTNFTYGEDVLHAPYVANQGWYDITKTFNGKDDLLCGAATAGNMLHWWFDQNKEQIENYLKKHPEKQKINFNGEQMFDVKEAIDTKDSQLDSKLFEYFKEKAFPYLSTKHLGVFPDHVIDMFINGYRLSLTNHGPTPVKRGSKDPRGGIFDAVFTRGDQSKLLTNRHDFKEKTLKEISDLIKQELTEGKALGISHTYANVRINHVINLWGADFDAEGNLEAIYVTDSDSNPSIGMKKYFVGVNSNGKVAISAKEIEEDNIGAQVLGLFTLSTGQDIWNQTN
B2 was tested, and the Enzyme Activity Endpoint Assay (purified): Fab′2 was 486 ng/µL, the Enzyme Activity Endpoint Assay (purified): Fc was 334 ng/µL and the Enzyme Activity Endpoint Assay (purified): IgG was 0 ng/µL. For the same protein, the Enzyme Activity Endpoint Assay (purified): scIgG was 194 ng/µL.

B3: PRT-382 (protein)
chain: B2 chain with P243A, F251V
B3 gave an Enzyme Activity Endpoint Assay (purified): Fab′2 of 585 ng/µL, an Enzyme Activity Endpoint Assay (purified): Fc of 380 ng/µL and an Enzyme Activity Endpoint Assay (purified): IgG of 0 ng/µL. The Enzyme Activity Endpoint Assay (purified): scIgG was 226 ng/µL.

B4: PRT-390 (protein)
chain: B2 chain with M88L, P243A
Work on B4 yielded an Enzyme Activity Endpoint Assay (purified): Fab′2 of 578 ng/µL, an Enzyme Activity Endpoint Assay (purified): Fc of 371 ng/µL and an Enzyme Activity Endpoint Assay (purified): IgG of 0 ng/µL. It also gave an Enzyme Activity Endpoint Assay (purified): scIgG of 227 ng/µL, an Enzyme Activity Endpoint Assay: Fab′2 of 578 ng/µL and an Enzyme Activity Endpoint Assay: Fc of 371 ng/µL. It also gave an Enzyme Activity Endpoint Assay: IgG of 0 ng/µL and an Enzyme Activity Endpoint Assay: scIgG of 227 ng/µL.

B5: PRT-391 (protein)
chain: B2 chain with P157K, P243A
B5 showed an Enzyme Activity Endpoint Assay (purified): Fab′2 of 498 ng/µL, an Enzyme Activity Endpoint Assay (purified): Fc of 361 ng/µL and an Enzyme Activity Endpoint Assay (purified): IgG of 29 ng/µL. The Enzyme Activity Endpoint Assay (purified): scIgG was 192 ng/µL, the Enzyme Activity Endpoint Assay: Fab′2 was 498 ng/µL and the Enzyme Activity Endpoint Assay: Fc was 361 ng/µL. It also gave an Enzyme Activity Endpoint Assay: IgG of 29 ng/µL and an Enzyme Activity Endpoint Assay: scIgG of 192 ng/µL.

B6: PRT-389 (protein)
chain: B2 chain with N84K, P243A
B6 gave an Enzyme Activity Endpoint Assay (purified): Fab′2 of 479 ng/µL, an Enzyme Activity Endpoint Assay (purified): Fc of 340 ng/µL and an Enzyme Activity Endpoint Assay (purified): IgG of 32 ng/µL. It also gave an Enzyme Activity Endpoint Assay (purified): scIgG of 219 ng/µL.

B7: PRT-383 (protein)
chain: B2 chain with E108D, P243A
With B7 the Enzyme Activity Endpoint Assay (purified): Fab′2 was 581 ng/µL, the Enzyme Activity Endpoint Assay (purified): Fc was 379 ng/µL and the Enzyme Activity Endpoint Assay (purified): IgG was 0 ng/µL. It also gave an Enzyme Activity Endpoint Assay (purified): scIgG of 230 ng/µL, an Enzyme Activity Endpoint Assay: Fab′2 of 581 ng/µL and an Enzyme Activity Endpoint Assay: Fc of 379 ng/µL. The Enzyme Activity Endpoint Assay: IgG was 0 ng/µL and the Enzyme Activity Endpoint Assay: scIgG was 230 ng/µL.

B8: PRT-413 (protein)
chain: MTITSVWTKGVTPPTPEDFRENNEDVLHAPYVANQGWYDITKTFDGKDNLLCGAATAGNMLHWWFDQNKEEIERYLKKHPEKQKIIFNNQELFDVKAAIDTKDSQTNSKLFNYFRDKAFPNLSARQLGVMPDLVLDMFINGYYLNLGKTQSTDVNRPYQDKDKRGGIFDAVFTRGDQTTLLTARHDLKNKGLNEISDLIKQELTEGKALALSHTYANVRINHVINLWGADFDAEGNLIAIYVTDSDANASIGMKKYFVGVNANGKVAISAKKIEGDNIGAQVLGLFTLSTGQDIWQKLS
B8 gave an Enzyme Activity Endpoint Assay (purified): Fab′2 of 485 ng/µL, an Enzyme Activity Endpoint Assay (purified): Fc of 347 ng/µL and an Enzyme Activity Endpoint Assay (purified): IgG of 14 ng/µL. For the same protein, the Enzyme Activity Endpoint Assay (purified): scIgG was 152 ng/µL.

B9: PRT-429 (protein)
chain: B8 chain with E21Y, N248R
B9 was tested, and the Enzyme Activity Endpoint Assay (purified): Fab′2 was 528 ng/µL, the Enzyme Activity Endpoint Assay (purified): Fc was 348 ng/µL and the Enzyme Activity Endpoint Assay (purified): IgG was 57 ng/µL. The Enzyme Activity Endpoint Assay (purified): scIgG was 171 ng/µL.

B10: PRT-422 (protein)
chain: B8 chain with E21Y, A249P
B10 showed an Enzyme Activity Endpoint Assay (purified): Fab′2 of 494 ng/µL, an Enzyme Activity Endpoint Assay (purified): Fc of 348 ng/µL and an Enzyme Activity Endpoint Assay (purified): IgG of 69 ng/µL. For the same protein, the Enzyme Activity Endpoint Assay (purified): scIgG was 136 ng/µL, the Enzyme Activity Endpoint Assay: Fab′2 was 494 ng/µL and the Enzyme Activity Endpoint Assay: Fc was 348 ng/µL. The Enzyme Activity Endpoint Assay: IgG was 69 ng/µL and the Enzyme Activity Endpoint Assay: scIgG was 136 ng/µL.

B11: PRT-414 (protein)
chain: B8 chain with E21Y, N88G
In the case of B11, the Enzyme Activity Endpoint Assay (purified): Fab′2 is reported as 496 ng/µL, the Enzyme Activity Endpoint Assay (purified): Fc is reported as 341 ng/µL and the Enzyme Activity Endpoint Assay (purified): IgG is reported as 77 ng/µL. It also gave an Enzyme Activity Endpoint Assay (purified): scIgG of 129 ng/µL, an Enzyme Activity Endpoint Assay: Fab′2 of 496 ng/µL and an Enzyme Activity Endpoint Assay: Fc of 341 ng/µL. The Enzyme Activity Endpoint Assay: IgG was 77 ng/µL and the Enzyme Activity Endpoint Assay: scIgG was 129 ng/µL.

B12: PRT-421 (protein)
chain: B8 chain with E21Y, N112D
With B12 the Enzyme Activity Endpoint Assay (purified): Fab′2 was 612 ng/µL, the Enzyme Activity Endpoint Assay (purified): Fc was 340 ng/µL and the Enzyme Activity Endpoint Assay (purified): IgG was 71 ng/µL. The Enzyme Activity Endpoint Assay (purified): scIgG was 0 ng/µL.

B13: PRT-397 (protein)
chain: MVTSVWTKGVTPPADFTQGEDVFHAPYVANQGWYDITKTFNGKDDLLCGAATAGNMLHWWFDQNKEYIEAYLKKHPEKQKIMFGDQELLDVRKAINTKGSQKNSELFNYFRDKAFPNLSARRLGVMPDLVLDMFINGYYLNVTKTQTTDVNRTYQEKDKRGGIFDAVFTRGDQSKLLTSRHDFKEKGLKEISDLIKQELTEGKALGLSHTYANVGINHVINLWGADFDSDGNLKAIYVTDSDSNASIGMKKYFVGVNSAGKVAISAKEIKEDNIGAQVLGLFTLSTGQDIWNQTN
Protein B13 has an Enzyme Activity Endpoint Assay (purified): Fab′2 of 102 ng/µL, an Enzyme Activity Endpoint Assay (purified): Fc of 243 ng/µL and an Enzyme Activity Endpoint Assay (purified): IgG of 93 ng/µL. For the same protein, the Enzyme Activity Endpoint Assay (purified): scIgG was 498 ng/µL.

B14: PRT-399 (protein)
chain: B13 chain with G215R, F253V
Work on B14 yielded an Enzyme Activity Endpoint Assay (purified): Fab′2 of 0 ng/µL, an Enzyme Activity Endpoint Assay (purified): Fc of 0 ng/µL and an Enzyme Activity Endpoint Assay (purified): IgG of 1580 ng/µL. It also gave an Enzyme Activity Endpoint Assay (purified): scIgG of 0 ng/µL, an Enzyme Activity Endpoint Assay: Fab′2 of 0 ng/µL and an Enzyme Activity Endpoint Assay: Fc of 0 ng/µL. For the same protein, the Enzyme Activity Endpoint Assay: IgG was 1580 ng/µL and the Enzyme Activity Endpoint Assay: scIgG was 0 ng/µL.

B15: PRT-406 (protein)
chain: B13 chain with G42R, G215R
B15 gave an Enzyme Activity Endpoint Assay (purified): Fab′2 of 435 ng/µL, an Enzyme Activity Endpoint Assay (purified): Fc of 299 ng/µL and an Enzyme Activity Endpoint Assay (purified): IgG of 135 ng/µL. For the same protein, the Enzyme Activity Endpoint Assay (purified): scIgG was 108 ng/µL, the Enzyme Activity Endpoint Assay: Fab′2 was 435 ng/µL and the Enzyme Activity Endpoint Assay: Fc was 299 ng/µL. It also gave an Enzyme Activity Endpoint Assay: IgG of 135 ng/µL and an Enzyme Activity Endpoint Assay: scIgG of 108 ng/µL.

B16: PRT-398 (protein)
chain: B13 chain with G215R, F253D
B16 showed an Enzyme Activity Endpoint Assay (purified): Fab′2 of 555 ng/µL, an Enzyme Activity Endpoint Assay (purified): Fc of 370 ng/µL and an Enzyme Activity Endpoint Assay (purified): IgG of 0 ng/µL. For the same protein, the Enzyme Activity Endpoint Assay (purified): scIgG was 196 ng/µL, the Enzyme Activity Endpoint Assay: Fab′2 was 555 ng/µL and the Enzyme Activity Endpoint Assay: Fc was 370 ng/µL. For the same protein, the Enzyme Activity Endpoint Assay: IgG was 0 ng/µL and the Enzyme Activity Endpoint Assay: scIgG was 196 ng/µL.

B17: PRT-405 (protein)
chain: B13 chain with G215R, F253G
Protein B17 has an Enzyme Activity Endpoint Assay (purified): Fab′2 of 86 ng/µL, an Enzyme Activity Endpoint Assay (purified): Fc of 218 ng/µL and an Enzyme Activity Endpoint Assay (purified): IgG of 406 ng/µL. It also gave an Enzyme Activity Endpoint Assay (purified): scIgG of 558 ng/µL.
